Consider three molecules from US20250388664A1 (BIOARCTIC, published 2025).

Where two headings read alike, the source gives them in different places.

By IC50 is commonly meant the concentration at which inhibition is half-maximal. A word on the koff: it is the rate constant with which the complex falls apart. For orientation: kon means a measure of how fast the partners come together.

In test [1] the target is T1, h/m apical domain chimera (SEQ ID NO:112) (human/mouse chimera).
T1 construct: also called chimeric TfR1 consisting of human apical domain grafted on mouse TfR1 ectodomain
T1 chain: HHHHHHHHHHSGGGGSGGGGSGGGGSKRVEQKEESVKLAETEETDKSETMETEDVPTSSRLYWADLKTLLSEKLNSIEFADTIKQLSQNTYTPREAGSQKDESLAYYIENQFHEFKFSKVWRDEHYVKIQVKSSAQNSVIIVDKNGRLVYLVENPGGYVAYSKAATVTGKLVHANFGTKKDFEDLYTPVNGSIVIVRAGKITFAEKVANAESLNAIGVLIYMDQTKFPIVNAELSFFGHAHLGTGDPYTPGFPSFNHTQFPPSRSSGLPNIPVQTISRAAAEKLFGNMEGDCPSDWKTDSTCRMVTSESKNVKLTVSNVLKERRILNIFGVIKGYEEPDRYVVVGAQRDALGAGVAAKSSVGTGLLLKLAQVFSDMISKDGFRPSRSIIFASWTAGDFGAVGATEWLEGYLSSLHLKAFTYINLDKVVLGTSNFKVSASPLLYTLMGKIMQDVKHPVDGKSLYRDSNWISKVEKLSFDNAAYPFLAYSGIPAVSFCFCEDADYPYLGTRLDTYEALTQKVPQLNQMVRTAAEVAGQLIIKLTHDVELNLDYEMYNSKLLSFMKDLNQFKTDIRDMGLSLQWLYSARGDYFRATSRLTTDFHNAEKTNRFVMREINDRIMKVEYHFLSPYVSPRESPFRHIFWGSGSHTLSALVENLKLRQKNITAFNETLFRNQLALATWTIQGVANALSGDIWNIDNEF
Nature of the test: indirect ELISA: plate coated with 1 µg/ml h/m apical domain chimera, mouse IgG titrated, anti-mouse IgG-HRP; x axis printed as 'TfR (ng/ml)'. Here is the method: Plasma samples serially diluted from a starting dilution of 1/450 or hybridoma supernatants diluted 1/2 were added to the plates (50 μl/well; dilution buffer: PBS with 0.1% BSA and 0.05% TWEEN®-20) and incubated for 2 h at room temperature and then the plates were washed four times. […] After another wash (as above), 50 μl/well TMB substrate (K-Blue® Aqueous, Neogen) was added, and the reaction was stopped after 10-15 min with 50 μl/well of 0.5 M H₂SO₄. The optical density at 450 nm was read using a plate reader (Tecan). The endpoint titers were defined as the dilution above the average of the blank wells (background) plus 3 standard deviations of the blank wells.
In the ELISA experiment, human, mouse or three different chimeric TfR1 receptors were used to coat ELISA plates (FIGS. 30A-30E). The ELISA protocol was slightly modified as follows from the indirect ELISA described in Example 15. […] The coated plates were then blocked. Dilution series of mouse IgG of the analyzed antibodies were prepared in PBS and incubated on the ELISA plates. Unbound antibodies were then washed off before incubating wells with a HRP-conjugated secondary, anti-mouse-IgG for 1 h. Plates were then washed again before addition of HRP substrate TMB for development and detection of antibody binding to the wells. TMB development was stopped by adding 0.5 M H₂SO₄ to the wells and ELISA responses measured as the OD at 450 nm in an ELISA plate reader.
For orientation: In an ELISA, binding on a coated surface is turned into a signal by an enzyme label.

Test [2] has as its target T2, AβpE3-40 monomer (UniProt P05067 674-711, pyroglutamate at position 3 (N-terminal residue)).
T2 construct: range 3-40 (Aβ numbering); Synthetic peptide (Bachem/Anaspec), verified monomeric by SEC; also called monomeric AβpE3-40
Put plainly: inhibition ELISA, antigen titrated in solution, AβpE3-40 coat. The protocol:
(§1) The tested molecules were incubated at a fixed concentration (0.1 μg/ml) with titrating concentrations of the different AβpE3 antigens. After incubation for 45 min at 900 rpm to reach equilibrium, the samples were added to a blocked and washed ELISA plate with an AβpE3-40 coat (0.5 μM). The samples were incubated on the plate for 25 min without shaking followed by washing, incubation with detection antibody, another washing step and finally incubation with alkaline phosphatase substrate.

Test [3] addresses T3, AβpE3-42 protofibrils (UniProt P05067 674-713, pyroglutamate at position 3 (N-terminal residue)).
T3 construct: range 3-42 (Aβ numbering); Soluble aggregates made from AβpE3-42 peptide, purified in the void peak of SEC; also called AβpE3-42 PF
The description is as above. The protocol: as §1

The target in test [4] is T4, truncated hTfR1 of SEQ ID NO:122 (human, UniProt P02786 122-760).
T4 construct: also called human TfR1; Human TfR1
T4 sequence (P02786 other isoform, or with tags, fused parts or gaps limits assumed): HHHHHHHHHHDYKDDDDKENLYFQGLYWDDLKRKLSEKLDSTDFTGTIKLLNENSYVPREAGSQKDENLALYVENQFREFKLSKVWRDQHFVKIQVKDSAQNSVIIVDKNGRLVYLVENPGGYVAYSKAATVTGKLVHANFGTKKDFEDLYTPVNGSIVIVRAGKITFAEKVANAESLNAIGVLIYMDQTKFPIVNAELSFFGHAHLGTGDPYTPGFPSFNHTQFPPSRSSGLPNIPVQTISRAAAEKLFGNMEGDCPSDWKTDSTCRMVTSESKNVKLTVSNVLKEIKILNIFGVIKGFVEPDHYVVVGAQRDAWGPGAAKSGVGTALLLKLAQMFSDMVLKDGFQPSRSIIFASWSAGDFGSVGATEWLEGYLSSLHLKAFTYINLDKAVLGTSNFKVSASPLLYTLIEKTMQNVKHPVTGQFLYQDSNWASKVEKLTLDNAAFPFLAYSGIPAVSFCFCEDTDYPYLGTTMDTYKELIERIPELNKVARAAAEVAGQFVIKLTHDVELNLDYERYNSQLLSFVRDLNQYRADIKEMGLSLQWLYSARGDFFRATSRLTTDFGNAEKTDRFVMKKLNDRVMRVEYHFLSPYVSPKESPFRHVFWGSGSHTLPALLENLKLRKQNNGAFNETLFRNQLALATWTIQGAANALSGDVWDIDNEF
Put plainly: SPR, FLAG-captured TfR1, bispecific injected, 1:1 fit. Background: In SPR one partner is held on a chip, and binding of the other changes the refractive index at the surface.

For test [5], the target named is T2, AβpE3-40 monomer. Put plainly: SPR, antibody immobilised, monomer injected, 1:1 fit. Here is the method:
Single cycle kinetics with the binding molecules immobilized on a CM5 chip was used to measure binding to the AβpE3-40 monomer. For the measurements, 5 μg/ml of analyte binding molecule was immobilized on the chip. […] Regeneration of the surface between cycles was done by injecting 30 μl 3 M MgCl₂ (Cytiva, cat. No. 29234600). The binding data was fitted to a 1:1 interaction model.

The next test deals with T5, AβpE3-28 monomer (UniProt P05067 674-699, pyroglutamate at position 3 (N-terminal residue)).
T5 construct: range 3-28 (Aβ numbering)
T5 sequence (P05067 674-699): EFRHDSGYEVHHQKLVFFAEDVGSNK
Nature of the test: inhibition ELISA, antigen titrated in solution, AβpE3-40 coat. Here is the method: (§2) The humanized antibodies were incubated at a fixed concentration (0.5 μg/ml) with titrating concentrations of the different Aβ antigens. After incubation for 45 min at 900 rpm to reach equilibrium, the antibody-Aβ samples were added to a blocked and washed ELISA plate with an AβpE3-40 coat (0.5 μM). The samples were incubated on the plate for 25 min without shaking followed by washing, incubation with detection antibody, another washing step and finally incubation with alkaline phosphatase substrate.

The next test has as its target T6, Aβ3-28 monomer (UniProt P05067 674-699).
T6 construct: range 3-28 (Aβ numbering)
The description is as above. The protocol:
as §2

Test [6] deals with T3, AβpE3-42 protofibrils. Nature of the test: SPR, protofibrils immobilised, antibody injected, 1:1 fit, apparent. Here is the method: (§3) Single cycle kinetics was also used to measure binding of the antibodies to AβpE3-42 protofibrils. […] Regeneration of the surface between cycles was done by injecting 30 μl 10 mM glycine-HCl pH 1.7. The binding data was fitted to a 1:1 interaction model.
(§4) In all SPR experiments, 1×HBS-EP+ (Cytiva, cat. no. BR100669) was used to dilute antibodies and target antigens. Experiments were performed at 25° C.
(§5) Affinity evaluation and KD determination by surface plasmon resonance: Binding interactions between antigens and antibodies were evaluated by SPR using a Biacore 8K instrument (Cytiva) according to standard procedures.

In test [7] the target is T2, AβpE3-40 monomer. Put plainly: inhibition ELISA, antigen titrated in solution, AβpE3-40 coat. The source holds these as a separate data set.
The target of the next test is T7, Aβ1-42 protofibrils (UniProt P05067 672-713).
T7 construct: range 1-42 (Aβ numbering); Soluble aggregates made from Aβ1-42 monomer
T7 sequence (P05067 672-713): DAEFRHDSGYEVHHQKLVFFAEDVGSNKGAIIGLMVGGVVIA
The test is described as above.

Test [8] has as its target T3, AβpE3-42 protofibrils. Described as above. The source holds these as a separate data set.
For another test, the target named is T8, Aβ1-40 monomer (UniProt P05067 672-711).
T8 construct: range 1-40 (Aβ numbering)
T8 sequence (P05067 672-711): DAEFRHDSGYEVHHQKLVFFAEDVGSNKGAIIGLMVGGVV
The test is described as above.

For test [9], the target named is T3, AβpE3-42 protofibrils. Nature of the test: SPR, protofibrils immobilised, antibody injected, 1:1 fit, apparent; binding to AβpE3-42 protofibrils; KD in pM. The protocol: as §3, §4, §5
The target of test [10] is T2, AβpE3-40 monomer. Nature of the test: SPR, antibody immobilised, monomer injected, 1:1 fit. The protocol:
Single cycle kinetics with the antibodies immobilized on a CM5 chip was used to measure the binding of the antibodies to the AβpE3-40 monomer. For the measurements, 5 μg/ml of analyte antibody was immobilized on the chip. […] Regeneration of the surface between cycles was done by injecting 30 μl 3 M MgCl₂. The binding data was fitted to a 1:1 interaction model.
as §4, §5
This is another data set of the same source.

T2 sequence (P05067 674-711): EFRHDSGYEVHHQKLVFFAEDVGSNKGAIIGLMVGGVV
T3 sequence (P05067 674-713): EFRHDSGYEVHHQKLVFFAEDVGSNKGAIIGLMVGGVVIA

B1: 26D3 (antibody, V domains shown)
VH: EVQLQQFGVELVKPGASVKISCKASGYIFTDYNMDWVKQSHGKSLEWIGDINPDYDTTSYNEKFKGKATLTVDKSSSTAYMELRSLTSEDTAVYYCARGGYSGSSYYHPMDYWGQGTSVTVSS
VL: DIVMSQSPSSLAVSVGEKITMSCKSSQSLLYSTNQKNYLAWYQQKPGQSPELLIYWASTRESGVPDRFTGSGSGTDFTLTISNVRAEDLAVYYCQQYFIYPRTFGGGTKLEIK
notes: also called mouse antibody 26D3; clone 26D3
Consider B1, for which, in [1], the binding result is reported as “no binding (tested: about 600 ng/ml)”.

B2: BA002 (bispecific antibody, human IgG1, kappa)
light: EIVLTQSPLSLSVTLGQSASISCRSSQSLLDSNGKTYLHWFILRPGQSPRRLIYLVSILDSGVPDRFSGSGSGTDFTLKISRVEAEDVGVYYCVQGTHFPFTFGSGTKLEIKRTVAAPSVFIFPPSDEQLKSGTASVVCLLNNFYPREAKVQWKVDNALQSGNSQESVTEQDSKDSTYSLSSTLTLSKADYEKHKVYACEVTHQGLSSPVTKSFNRGEC
heavy 1: not shown
heavy 2: EVQLVQSGAEVVKPGASVRLSCKASGYSFTGFTMNWVRQALGQGLEWMGLINPYNGVTTYNQKFKGRLTMTRDMSTRTVYMDLSSLTYEDTAVYYCTREGNWEGVYWGQGTLVTVSSASTKGPSVFPLAPSSKSTSGGTAALGCLVKDYFPEPVTVSWNSGALTSGVHTFPAVLQSSGLYSLSSVVTVPSSSLGTQTYICNVNHKPSNTKVDKKVEPKSCDKTHTCPPCPAPELLGGPSVFLFPPKPKDTLMISRTPEVTCVVVDVSHEDPEVKFNWYVDGVEVHNAKTKPREEQYNSTYRVVSVLTVLHQDWLNGKEYKCAVSNKALPAPIEKTISKAKGQPREPQVYTLPPCRDELTKNQVSLWCLVKGFYPSDIAVEWESNGQPENNYKTTPPVLDSDGSFFLYSKLTVDKSRWQQGNVFSCSVMHEALHNHYTQKSLSLSPGGGGGSGGGGSGGGGSGGGGSDIQMTQSPSSVSASVGDRVTITCKSSQSLLASTNQKNYLAWYQQKPGKAPKLLIYWASTRESGVPSRFSGSGSGTDFTLTISSLQPEDFATYYCQQYFIYPRTFGCGTKVEIKGGGGSGGGGSGGGGSGGGGSEVQLVQSGAEVKKPGSSVKVSCKASGYIFTDYNMDWVRQAPGQCLEWIGDINPDYDTTSYNEKFKGRATLTVDKSTSTAYMELSSLRSEDTAVYYCARGGYSGSSYYHPMDYWGQGTLVTVSS
Turning to B2, the IC50 with AβpE3-40 monomer [2] amounted to 0.8 nM. In addition, the IC50 with AβpE3-42 protofibrils [3] worked out at 3.2 nM. In [4], this molecule registered a Kd of 35.6 nM, a koff of 0.0031 s⁻¹ and a kon of 87000 M⁻¹ s⁻¹. In the test with AβpE3-40 monomer [5], this molecule gave a Kd of 2.38 nM, a koff of 0.000127 s⁻¹ and a kon of 53500 M⁻¹ s⁻¹.

B3: H2L7-K12V/R83T (antibody, human IgG1, kappa)
heavy: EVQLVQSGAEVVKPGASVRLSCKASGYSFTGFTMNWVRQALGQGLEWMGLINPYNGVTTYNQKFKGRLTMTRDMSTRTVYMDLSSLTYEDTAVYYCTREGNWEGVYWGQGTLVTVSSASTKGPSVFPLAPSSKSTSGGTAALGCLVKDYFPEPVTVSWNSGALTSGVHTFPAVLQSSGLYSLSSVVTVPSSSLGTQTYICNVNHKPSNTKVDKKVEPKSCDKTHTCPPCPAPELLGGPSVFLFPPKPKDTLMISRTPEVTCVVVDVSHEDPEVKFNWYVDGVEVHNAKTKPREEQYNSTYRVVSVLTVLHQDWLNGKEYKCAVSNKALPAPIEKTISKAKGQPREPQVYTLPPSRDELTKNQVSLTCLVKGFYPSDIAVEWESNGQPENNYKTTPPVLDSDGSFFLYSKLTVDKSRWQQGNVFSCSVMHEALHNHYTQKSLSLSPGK
light: EIVLTQSPLSLSVTLGQSASISCRSSQSLLDSNGKTYLHWFILRPGQSPRRLIYLVSILDSGVPDRFSGSGSGTDFTLKISRVEAEDVGVYYCVQGTHFPFTFGSGTKLEIKRTVAAPSVFIFPPSDEQLKSGTASVVCLLNNFYPREAKVQWKVDNALQSGNSQESVTEQDSKDSTYSLSSTLTLSKADYEKHKVYACEVTHQGLSSPVTKSFNRGEC
notes: VH variant of H2L7; VL and constant domains identical to H2L7
As for B3, the IC50 with AβpE3-28 monomer is 5 nM; in the test with Aβ3-28 monomer, 2260 nM; with AβpE3-40 monomer [7], 2.27 nM; with Aβ1-42 protofibrils, more than 132 nM; with AβpE3-42 protofibrils [8] it was 3.71 nM; with Aβ1-40 monomer, more than 500 nM. Also, the koff with AβpE3-42 protofibrils [6] came to 1.62e-05 s⁻¹; with AβpE3-40 monomer [10], 0.00012 s⁻¹. Besides, the values for the kon with AβpE3-42 protofibrils [6] and with AβpE3-40 monomer [10] were 81100 M⁻¹ s⁻¹ and 56200 M⁻¹ s⁻¹, respectively. The values for the Kd with AβpE3-42 protofibrils [9] and with AβpE3-40 monomer [10] were 0.2 nM and 2.2 nM, respectively.
